Our source for the Mean fluorescence intensity and OD450 values is patent US20220033501A1 (SHANGHAI PHARMAEXPLORER, published 2022).

The target of assay [1] is T1, human TIM-3 on CHOK1 stable cell line (CHOK1-hTIM-3) (human, UniProt Q8TDQ0 22-301).
T1 sequence: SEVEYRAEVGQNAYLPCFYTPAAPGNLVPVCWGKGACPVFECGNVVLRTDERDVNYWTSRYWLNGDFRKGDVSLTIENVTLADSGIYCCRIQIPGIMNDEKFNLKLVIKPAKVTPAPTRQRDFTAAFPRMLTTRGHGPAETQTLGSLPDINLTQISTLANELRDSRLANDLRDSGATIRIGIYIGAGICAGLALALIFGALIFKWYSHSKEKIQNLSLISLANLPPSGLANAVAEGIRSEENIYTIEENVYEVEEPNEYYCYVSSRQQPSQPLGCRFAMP
Description: FACS, CHOK1-hTIM-3 cells, 40 nM antibody.

In assay [2] the target is T1, human TIM-3 on CHOK1 stable cell line …. Description: FACS, CHOK1-hTIM-3 cells, 0.013 nM antibody.
In assay [3] the target is T2, monkey TIM-3 extracellular domain protein with hFc tag (cTIM-3-hFc) (monkey).
T2 construct: not shown: human IgG Fc fragment (hFc) of the pCpC vector
T2 chain: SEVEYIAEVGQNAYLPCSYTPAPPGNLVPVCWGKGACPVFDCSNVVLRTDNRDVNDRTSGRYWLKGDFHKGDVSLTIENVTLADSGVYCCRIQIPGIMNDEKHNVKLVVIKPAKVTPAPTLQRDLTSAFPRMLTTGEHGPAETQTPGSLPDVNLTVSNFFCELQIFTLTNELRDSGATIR
Description: ELISA, coated monkey TIM-3 ECD protein, 6.6667 nM antibody. In general terms: In an ELISA, binding on a coated surface is turned into a signal by an enzyme label.

For assay [4], the target named is T1, human TIM-3 on CHOK1 stable cell line …. Description: FACS, CHOK1-hTIM-3 cells, 0 nM antibody.

B1: 215A8F2 fully human TIM-3 antibody (human IgG4, kappa) (antibody, V domains shown)
VH: QVQLQQWGAGLLKPSETLSLTCTVYGGSFSGYYWNWIRQPPGKGLEWLGEINHSGSTNYNPSLKRRVTISVDTSKNQFSLKLSSVTAADTAVYYCARVYYYGPFDFWGQGTLVTVSS
VL: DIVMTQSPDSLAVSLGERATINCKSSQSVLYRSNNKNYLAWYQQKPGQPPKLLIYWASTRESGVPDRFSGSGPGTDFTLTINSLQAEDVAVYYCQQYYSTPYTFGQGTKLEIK
For B1, the Mean fluorescence intensity in assay [1] turned out to be 283; in assay [2], 8.2; in assay [4], 2.9. For the same molecule, the OD450 in assay [3] came to 3.28.

B2: 7A4F10 fully human TIM-3 antibody (human IgG4, kappa) (antibody, V domains shown)
VH: EVQLLESGGGLVQPGGSLRLSCAASGFTFRTHLISWVRQAPGKGLEWVAAITGSGGSTYYADSVKGRFIISRDNSKNTLFLQMNSLRAEDTAVYYCAKDGGSGSYDDFWGQGTLVTVSS
VL: ETVLTQSPVTLSLSPGERATLSCRASQSVGSYLAWYQQKPGQAPRLLIYDASNRATGIPARFSGSGSGTDFTLTISSLEPEDFAVYYCQQRSNWPPTFGQGTKVEIK
For the molecule B2, the figures for the Mean fluorescence intensity in assay [1], in assay [2] and in assay [4] were 313, 9.7 and 2.8, respectively. This molecule showed an OD450 in assay [3] of 3.12.

B3: 18D2H2 fully human TIM-3 antibody (human IgG4, kappa) (antibody, V domains shown)
VH: EVQLVESGGDLVQPGGSLRLSCAASGFTFSTYWMTWVRQAPGRGLEWVANIKQDGSAKYYVDSVKGRFTLSRDDAKNSLYLQMNSLRAEDTAVYYCARGSNWFDYWGQGTLVTVSS
VL: ETVMTQSPATLSVSPGERATLSCRANQNVYSNLAWYQQKPGQAPRLLIYDASTRATGFPARFSGSGSGTEFTLTISSLQSEDFAVYYCQQYNNWPLTFGGGTKVEIK
For B3, the Mean fluorescence intensity was 257 in assay [1], 11.6 in assay [2] and 2.8 in assay [4]. Besides, in assay [3], the OD450 stood at 3.3.

B4: 34B6D8 fully human TIM-3 antibody (human IgG4, kappa) (antibody, V domains shown)
VH: EVQLVESGGGLVQPGGSLRLSCAASGFTFSTYWMTWVRQAPGKRLEWVANIKQGGGDKYYVDSVKGRFTISTDNAKNSLYLQMNSLRAEDTAVYYCARGSNWFDPWGQGTLVTVSS
VL: EIVMTQSPATLSMSPGERATLSCRASQSVYDNLAWYQQKPGQAPRLLIYGASTRATGIPARFSGSGSGTEFTLTISSLQSEDFALYYCQQYTHWPITFGQGTRLEIK
Take B4: the Mean fluorescence intensity is 221 in assay [1], 9.2 in assay [2] and 2.9 in assay [4]. Besides, in assay [3], the OD450 amounted to 3.39.

B5: 39E5H1 fully human TIM-3 antibody (human IgG4, kappa) (antibody, V domains shown)
VH: EVQLVESGGGLVQPGGSLRLSCAASGFTFSSYWMSWVRQAPGKGLEWVANIKRGGSERYYVDSVKGRFTISGDNAKNSVYLQMNSLRAEDTAVYYCARGSNWFDPWGQGTLVTVSS
VL: ETVMTQSPAILSVSPGERATLSCRASQSVYSNLAWYQQKLGQAPRLLIYDASTRATGIPARFSGSGSGTEFTLTISSLQSEDFAVYYCQQYNNWPITFGQGTRLEIK
B5: the Mean fluorescence intensity in assay [1] was determined as 264; in assay [2], 9.2; in assay [4], 2.8. Also, the OD450 in assay [3] worked out at 3.35.
